{"source": "paper PMC4360532", "test_system": "Rev full-length wild-type (HIV-1 (HXB3?))", "assay": "EMSA", "settings": "10 mM HEPES pH 7.5, 0.1 M KCl (0.3 M KCl and no tRNA for SYBR Green II assay), 1 mM MgCl2, 0.5 mM EDTA, 2 mM DTT, 10% glycerol, 50 ug/ml yeast tRNA, 0.2 mg/ml …", "data": [{"substance": "RRE full-length 234 nt", "values": [{"measurement": "Kd", "value": 0.145, "unit": "nM"}]}]}
